In the assay the target is SARS-CoV-2 Omicron BA.1 receptor-binding domain (RBD) (SARS-CoV-2 Omicron BA.1, strain, biotin on the AviTag (expressed in the presence of BirA)).

B1: REGN10987 VH R16G-V108D (antibody, V domains shown)
VH: QVQLVESGGGVVQPGGSLRLSCAASGFTFSNYAMYWVRQAPGKGLEWVAVISYDGSNKYYADSVKGRFTISRDNSKNTLYLQMNSLRTEDTAVYYCASGSDYGDYLLDYWGQGTLVTVSS
VL: QSALTQPASVSGSPGQSITISCTGTSSDVGGYNYVSWYQQHPGKAPKLMIYDVSKRPSGVSNRFSGSKSGNTASLTISGLQSEDEADYYCNSLTSISTWVFGGGTKLTVL
In the case of B1, the binding result is recorded as “binds”.

For the origin of these results see article PMC10869273 (Nature Biotechnology, 2023).
